Test results published in US20140087995A1 (published 2014).
Numbered stars: 1 amine (or outer) side, 2 acyl side, 3 side chain; on linkers, the order of the positions; unused ones are H or OH. Bridge positions count the residues as written; N and C are the ends. Side chains are listed from the residue outwards. Ends that are not written are not given here. * marks the point of attachment. C20 diacid = O=C(O)CCCCCCCCCCCCCCCCCCC(=O)*; γGlu = O=C(O)[C@H](CCC(=O)[*:2])N[*:1]

T1: rat amylin receptor (rat calcitonin receptor + rat RAMP 3) (rat, UniProt P32214 25-516; Q9JJ73 23-147)
T1 construct: whole, on cells; Receptor complex in cell membranes prepared from transiently transfected BHK tk'ts 13 cells (Assay VI); also called rAmylin-R; rat amylin 3(a) receptor
T1 sequence (looked up) 1: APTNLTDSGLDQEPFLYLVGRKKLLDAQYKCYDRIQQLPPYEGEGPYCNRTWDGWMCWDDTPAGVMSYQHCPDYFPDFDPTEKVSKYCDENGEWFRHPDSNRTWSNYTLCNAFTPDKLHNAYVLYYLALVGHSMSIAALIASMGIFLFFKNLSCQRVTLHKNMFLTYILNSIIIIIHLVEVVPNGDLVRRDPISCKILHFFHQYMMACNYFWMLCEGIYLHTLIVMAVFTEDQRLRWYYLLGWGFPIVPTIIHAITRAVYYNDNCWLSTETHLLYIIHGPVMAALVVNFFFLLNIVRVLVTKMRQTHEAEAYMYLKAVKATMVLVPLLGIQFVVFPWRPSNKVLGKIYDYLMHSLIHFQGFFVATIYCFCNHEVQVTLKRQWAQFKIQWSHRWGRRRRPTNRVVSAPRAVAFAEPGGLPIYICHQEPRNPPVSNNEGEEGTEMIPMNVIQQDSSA
T1 sequence (looked up) 2: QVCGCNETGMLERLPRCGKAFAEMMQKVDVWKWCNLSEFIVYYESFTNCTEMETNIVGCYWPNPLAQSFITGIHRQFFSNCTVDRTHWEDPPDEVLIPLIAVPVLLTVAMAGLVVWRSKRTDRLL

T2: rat calcitonin receptor (rat, UniProt P32214 25-516)
T2 construct: whole, on cells; In cell membranes prepared from transiently transfected BHK tk'ts 13 cells (Assay VIII); also called rCTR; rat calcitonin (a) receptor
T2 sequence (looked up): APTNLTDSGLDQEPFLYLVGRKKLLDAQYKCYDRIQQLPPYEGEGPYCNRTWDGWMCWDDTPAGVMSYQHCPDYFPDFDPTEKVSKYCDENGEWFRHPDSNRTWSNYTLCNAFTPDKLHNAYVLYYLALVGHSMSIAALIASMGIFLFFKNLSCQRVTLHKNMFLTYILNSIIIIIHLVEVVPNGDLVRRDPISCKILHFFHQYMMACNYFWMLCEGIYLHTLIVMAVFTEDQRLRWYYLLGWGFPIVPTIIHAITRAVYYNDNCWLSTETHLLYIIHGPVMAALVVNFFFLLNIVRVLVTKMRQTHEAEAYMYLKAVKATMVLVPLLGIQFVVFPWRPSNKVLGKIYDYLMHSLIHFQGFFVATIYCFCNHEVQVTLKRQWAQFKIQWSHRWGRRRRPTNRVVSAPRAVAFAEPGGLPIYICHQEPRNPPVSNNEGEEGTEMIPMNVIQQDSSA

T3: human calcitonin receptor (human, UniProt P30988 25-474)
T3 construct: whole, on cells; Cell membranes from the stably transfected cell line (Assay VII); also called hCTR; hCT
T3 sequence (looked up): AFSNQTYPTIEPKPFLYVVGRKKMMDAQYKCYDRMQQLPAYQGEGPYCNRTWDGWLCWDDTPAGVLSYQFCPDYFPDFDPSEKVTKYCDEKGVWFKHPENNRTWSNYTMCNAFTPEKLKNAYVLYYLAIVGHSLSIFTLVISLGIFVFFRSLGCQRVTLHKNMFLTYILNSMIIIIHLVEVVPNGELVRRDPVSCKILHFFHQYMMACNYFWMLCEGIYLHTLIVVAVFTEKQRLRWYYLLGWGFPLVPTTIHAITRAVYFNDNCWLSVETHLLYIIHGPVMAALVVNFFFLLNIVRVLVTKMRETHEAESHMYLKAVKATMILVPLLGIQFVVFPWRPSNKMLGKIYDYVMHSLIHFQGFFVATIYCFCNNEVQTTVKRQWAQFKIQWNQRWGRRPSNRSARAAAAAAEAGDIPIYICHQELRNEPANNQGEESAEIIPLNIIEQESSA

B1: N^ε1-[(4S)-4-carboxy-4-[[(4S)-4-carboxy-4-(19-carboxynonadecanoylamino)butanoyl]amino]butanoyl]-[Glu14,Arg17,Pro21,Pro27,Pro34,Glu35,Pro37]-h-amylin (peptide)
peptide: K([γGlu-γGlu-C20 diacid])CNTATCATQRLAEFLRHSSPNFGAIPSSTNVGPETP-NH2
modifications: disulfide 2-7; N-terminus assumed
SMILES: CC[C@H](C)[C@H](NC(=O)[C@H](C)NC(=O)CNC(=O)[C@H](Cc1ccccc1)NC(=O)[C@H](CC(N)=O)NC(=O)[C@@H]1CCCN1C(=O)[C@H](CO)NC(=O)[C@H](CO)NC(=O)[C@H](Cc1c[nH]cn1)NC(=O)[C@H](CCCNC(=N)N)NC(=O)[C@H](CC(C)C)NC(=O)[C@H](Cc1ccccc1)NC(=O)[C@H](CCC(=O)O)NC(=O)[C@H](C)NC(=O)[C@H](CC(C)C)NC(=O)[C@H](CCCNC(=N)N)NC(=O)[C@H](CCC(N)=O)NC(=O)[C@@H](NC(=O)[C@H](C)NC(=O)[C@@H]1CSSC[C@H](NC(=O)[C@@H](N)CCCCNC(=O)CC[C@H](NC(=O)CC[C@H](NC(=O)CCCCCCCCCCCCCCCCCCC(=O)O)C(=O)O)C(=O)O)C(=O)N[C@@H](CC(N)=O)C(=O)N[C@@H]([C@@H](C)O)C(=O)N[C@@H](C)C(=O)N[C@@H]([C@@H](C)O)C(=O)N1)[C@@H](C)O)C(=O)N1CCC[C@H]1C(=O)N[C@@H](CO)C(=O)N[C@@H](CO)C(=O)N[C@H](C(=O)N[C@@H](CC(N)=O)C(=O)N[C@H](C(=O)NCC(=O)N1CCC[C@H]1C(=O)N[C@@H](CCC(=O)O)C(=O)N[C@H](C(=O)N1CCC[C@H]1C(N)=O)[C@@H](C)O)C(C)C)[C@@H](C)O
B2: N^ε1-[(4S)-4-carboxy-4-[[(4S)-4-carboxy-4-(19-carboxynonadecanoylamino)butanoyl]amino]butanoyl]-[Glu14,Arg17,Pro21,Pro27,Pro34,His35]-h-amylin (peptide)
peptide: K([γGlu-γGlu-C20 diacid])CNTATCATQRLAEFLRHSSPNFGAIPSSTNVGPHTY-NH2
modifications: disulfide 2-7; N-terminus assumed
SMILES: CC[C@H](C)[C@H](NC(=O)[C@H](C)NC(=O)CNC(=O)[C@H](Cc1ccccc1)NC(=O)[C@H](CC(N)=O)NC(=O)[C@@H]1CCCN1C(=O)[C@H](CO)NC(=O)[C@H](CO)NC(=O)[C@H](Cc1c[nH]cn1)NC(=O)[C@H](CCCNC(=N)N)NC(=O)[C@H](CC(C)C)NC(=O)[C@H](Cc1ccccc1)NC(=O)[C@H](CCC(=O)O)NC(=O)[C@H](C)NC(=O)[C@H](CC(C)C)NC(=O)[C@H](CCCNC(=N)N)NC(=O)[C@H](CCC(N)=O)NC(=O)[C@@H](NC(=O)[C@H](C)NC(=O)[C@@H]1CSSC[C@H](NC(=O)[C@@H](N)CCCCNC(=O)CC[C@H](NC(=O)CC[C@H](NC(=O)CCCCCCCCCCCCCCCCCCC(=O)O)C(=O)O)C(=O)O)C(=O)N[C@@H](CC(N)=O)C(=O)N[C@@H]([C@@H](C)O)C(=O)N[C@@H](C)C(=O)N[C@@H]([C@@H](C)O)C(=O)N1)[C@@H](C)O)C(=O)N1CCC[C@H]1C(=O)N[C@@H](CO)C(=O)N[C@@H](CO)C(=O)N[C@H](C(=O)N[C@@H](CC(N)=O)C(=O)N[C@H](C(=O)NCC(=O)N1CCC[C@H]1C(=O)N[C@@H](Cc1c[nH]cn1)C(=O)N[C@H](C(=O)N[C@@H](Cc1ccc(O)cc1)C(N)=O)[C@@H](C)O)C(C)C)[C@@H](C)O
B3: N^ε1-[(4S)-4-carboxy-4-[[(4S)-4-carboxy-4-(19-carboxynonadecanoylamino)butanoyl]amino]butanoyl]-[Glu14,Arg17,Pro21,Pro27,Pro34,Phe37]-h-amylin (peptide)
peptide: K([γGlu-γGlu-C20 diacid])CNTATCATQRLAEFLRHSSPNFGAIPSSTNVGPNTF-NH2
modifications: disulfide 2-7; N-terminus assumed
SMILES: CC[C@H](C)[C@H](NC(=O)[C@H](C)NC(=O)CNC(=O)[C@H](Cc1ccccc1)NC(=O)[C@H](CC(N)=O)NC(=O)[C@@H]1CCCN1C(=O)[C@H](CO)NC(=O)[C@H](CO)NC(=O)[C@H](Cc1c[nH]cn1)NC(=O)[C@H](CCCNC(=N)N)NC(=O)[C@H](CC(C)C)NC(=O)[C@H](Cc1ccccc1)NC(=O)[C@H](CCC(=O)O)NC(=O)[C@H](C)NC(=O)[C@H](CC(C)C)NC(=O)[C@H](CCCNC(=N)N)NC(=O)[C@H](CCC(N)=O)NC(=O)[C@@H](NC(=O)[C@H](C)NC(=O)[C@@H]1CSSC[C@H](NC(=O)[C@@H](N)CCCCNC(=O)CC[C@H](NC(=O)CC[C@H](NC(=O)CCCCCCCCCCCCCCCCCCC(=O)O)C(=O)O)C(=O)O)C(=O)N[C@@H](CC(N)=O)C(=O)N[C@@H]([C@@H](C)O)C(=O)N[C@@H](C)C(=O)N[C@@H]([C@@H](C)O)C(=O)N1)[C@@H](C)O)C(=O)N1CCC[C@H]1C(=O)N[C@@H](CO)C(=O)N[C@@H](CO)C(=O)N[C@H](C(=O)N[C@@H](CC(N)=O)C(=O)N[C@H](C(=O)NCC(=O)N1CCC[C@H]1C(=O)N[C@@H](CC(N)=O)C(=O)N[C@H](C(=O)N[C@@H](Cc1ccccc1)C(N)=O)[C@@H](C)O)C(C)C)[C@@H](C)O

Assays:
[1] = target: T1, rat amylin receptor (rat calcitonin …); experiment: SPA competition binding, displacement of 125I-rat amylin from membranes of BHK tk'ts 13 cells with rat calcitonin receptor + rat RAMP 3 (Assay VI)
rat calcitonin receptor [2] = target: T2, rat calcitonin receptor; experiment: SPA competition binding, displacement of 125I-Calcitonin from membranes of BHK tk'ts 13 cells with rat calcitonin receptor (Assay VIII)
[3] = target: T3, human calcitonin receptor; experiment: ratio of binding IC50s: human calcitonin receptor (Assay VII) over human amylin receptor (Assay V)
Experimental: The resulting pellet was resuspended, homogenized and centrifuged (20.000 rpm, 15 min) in a buffer containing 20 mM Na-HEPES and 0.1 mM EDTA (pH 7.4, buffer 2). The resulting pellet was resuspended in buffer 2 and protein concentration was measured (BCA protein Assay, Pierce). The homogenate was kept cold during the whole procedure. The membranes were kept at −80° C. until use. The assay was performed in a 384 well Optiplate (PerkinElmer) in a total volume of 40 ul. Membranes were mixed with SPA beads. Final concentration of membranes 35 ng/μL final and SPA beads was 0.05 mg/well. Test-compounds were dissolved in DMSO and further diluted in assay buffer (50 mM Hepes, pH 7.4, 1 mM CaCl2, 5 mM MgCl₂, 0.1% OA and 0.02% Tween20). […] The final mixture was incubated with shaking at 400 rpm for 120 min at 25° C. prior to centrifugation (1500 rpm, 10 min). Samples were analyzed on TopCounter™ (Packard). The IC₅₀ was calculated using (one site binding competition analysis) GraphPad Prism5 as a measure of receptor affinity.
Membranes were prepared in the following way; the cells were rinsed with PBS and incubated with Versene for approximately 5 min before harvesting. The cells were flushed with PBS and the cell-suspension was centrifuged for 5 min at 1000 rpm. Cells were homogenized (Ultrathurrax) in a buffer containing 20 mM Na-HEPES and 10 mM EDTA (pH 7.4) and centrifuged at 20.000 rpm for 15 min. The resulting pellet was resuspended, homogenized and centrifuged (20.000 rpm, 15 min) in a buffer containing 20 mM Na-HEPES and 0.1 mM EDTA (pH 7.4, buffer 2). The resulting pellet was resuspended in buffer 2 and protein concentration was measured (BCA protein Assay, Pierce). The homogenate was kept cold during the whole procedure. The membranes were kept at −80° C. until use. Assay was performed in a 384 well Optiplate (PerkinElmer) in a total volume of 40 ul. Membranes were mixed with SPA beads.

rat calcitonin receptor [4] = target: T2, rat calcitonin receptor; experiment: ratio of binding IC50s: rat calcitonin receptor (Assay VIII) over rat amylin receptor (Assay VI)

Binder | IC50 [1] | IC50 (rat calcitonin receptor [2]) | Ratio hCT/hAmylin binding [3] | Ratio rCT/rAmylin binding (rat calcitonin receptor [4])
B1 | 0.152 nM | 1.61 nM | 0.4 | 10.6
B2 | 0.288 nM | 21 nM | 27.3 | 73
B3 | 0.205 nM | 23.4 nM | 18 | 114
K([γGlu-γGlu-C20 diacid])CNTATCATQRLAEFLRHSSNNPGAILSSTNVGPETY-NH2 (disulfide 2-7) | 0.659 nM | 86.8 nM | 7.8 | 132
